Patent US20210171647A1 (WUXI BIOLOGICS SHANGHAI, published 2021)
Where a chain is given by its changes, count along the chain named.

Assays:
Assay in all cases: ELISA, antibody coated, OX40-ECD.His mutant supernatant; relative to silent alanine substitutions;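 also: captured OX40 mutant protein detected with HRP-labelled anti-His antibody, absorbance read-out, scaled to the mean signal of control mutants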
human OX40-ECD.His N39A = molecular target: T1, human OX40-ECD.His N39A (human, UniProt P43489 29-214)
T1 construct: extracellular domain; not shown: C-terminal His-tag
T1 sequence (looked up): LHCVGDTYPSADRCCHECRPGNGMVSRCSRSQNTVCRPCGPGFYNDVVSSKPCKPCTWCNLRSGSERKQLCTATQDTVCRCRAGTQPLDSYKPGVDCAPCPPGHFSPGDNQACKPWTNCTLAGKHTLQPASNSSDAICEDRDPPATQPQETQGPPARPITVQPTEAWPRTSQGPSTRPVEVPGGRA

human OX40-ECD.His D34A = molecular target: T2, human OX40-ECD.His D34A (human, UniProt P43489 29-214)
T2 construct: extracellular domain; not shown: C-terminal His-tag
T2 sequence (looked up): T1 sequence (looked up) with D6A, A11N

human OX40-ECD.His P172A = molecular target: T3, human OX40-ECD.His P172A (human, UniProt P43489 29-214)
T3 construct: extracellular domain; not shown: C-terminal His-tag
T3 sequence (looked up): T1 sequence (looked up) with A11N, P144A

human OX40-ECD.His A164G = molecular target: T4, human OX40-ECD.His A164G (human, UniProt P43489 29-214)
T4 construct: extracellular domain; not shown: C-terminal His-tag
T4 sequence (looked up): T1 sequence (looked up) with A11N, A136G

human OX40-ECD.His T145A = molecular target: T5, human OX40-ECD.His T145A (human, UniProt P43489 29-214)
T5 construct: extracellular domain; not shown: C-terminal His-tag
T5 sequence (looked up): T1 sequence (looked up) with A11N, T117A

human OX40-ECD.His A111G = molecular target: T6, human OX40-ECD.His A111G (human, UniProt P43489 29-214)
T6 construct: extracellular domain; not shown: C-terminal His-tag
T6 sequence (looked up): T1 sequence (looked up) with A11N, A83G

human OX40-ECD.His I165A = molecular target: T7, human OX40-ECD.His I165A (human, UniProt P43489 29-214)
T7 construct: extracellular domain; not shown: C-terminal His-tag
T7 sequence (looked up): T1 sequence (looked up) with A11N, I137A

human OX40-ECD.His K82A = molecular target: T8, human OX40-ECD.His K82A (human, UniProt P43489 29-214)
T8 construct: extracellular domain; not shown: C-terminal His-tag
T8 sequence (looked up): T1 sequence (looked up) with A11N, K54A

human OX40-ECD.His V53A = molecular target: T9, human OX40-ECD.His V53A (human, UniProt P43489 29-214)
T9 construct: extracellular domain; not shown: C-terminal His-tag
T9 sequence (looked up): T1 sequence (looked up) with A11N, V25A

human OX40-ECD.His L155A = molecular target: T10, human OX40-ECD.His L155A (human, UniProt P43489 29-214)
T10 construct: extracellular domain; not shown: C-terminal His-tag
T10 sequence (looked up): T1 sequence (looked up) with A11N, L127A

Fold Change (human OX40-ECD.His N39A): 0.988 | Fold Change (human OX40-ECD.His D34A): 0.991 | Fold Change (human OX40-ECD.His P172A): 1.02 | Fold Change (human OX40-ECD.His A164G): 0.47 | Fold Change (human OX40-ECD.His T145A): 0.675 | Fold Change (human OX40-ECD.His A111G): 0.853 | Fold Change (human OX40-ECD.His I165A): 0.871 | Fold Change (human OX40-ECD.His K82A): 0.894 | Fold Change (human OX40-ECD.His V53A): 0.896 | Fold Change (human OX40-ECD.His L155A): 0.959
B1: 1.134.9-u1-IgG1L (antibody, V domains shown)
VH: QVQLQESGPGLVKPSGTLSLTCAVSGGSISSYNWWSWVRQPPGKGLEWIGEIYHGGNTNYNPSLKSRVTMSVDNSKNQFSLKLSSVTAADTAVYYCARAPGDWGGSPYFDFWGQGTLVTVSS
VL: SSELTQDPAVSVALGQTVRITCQGDNLRTYYASWYQQKPGQAPILLIYGRNKRPSGIPDRFSGSSSGNTASLTITGAQAEDEAAYYCNSRDSSGNPVVFGGGTKLTVL
notes: fully human IgG1, lambda
